In patent publication US20090137002A1 (published 2009):
One block for each binder: values may come before it.

Columns and labels:
[1] = biological target: T1, recombinant mouse EphA4-Fc fusion protein (mouse, UniProt Q03137 20-547, limits assumed); experiment: ELISA, well P15 [part 2]
T1 construct: also called mEphA4; not shown: Fc part, not described

[2] = biological target: T2, recombinant murine EphB4-Fc fusion protein (mouse, UniProt P54761 16-539); experiment: SET (MSD), solution equilibrium titration; n = 1
T2 construct: extracellular domain; also called mEphB4; mu EphB4; not shown: Fc part, not described
T2 sequence (looked up): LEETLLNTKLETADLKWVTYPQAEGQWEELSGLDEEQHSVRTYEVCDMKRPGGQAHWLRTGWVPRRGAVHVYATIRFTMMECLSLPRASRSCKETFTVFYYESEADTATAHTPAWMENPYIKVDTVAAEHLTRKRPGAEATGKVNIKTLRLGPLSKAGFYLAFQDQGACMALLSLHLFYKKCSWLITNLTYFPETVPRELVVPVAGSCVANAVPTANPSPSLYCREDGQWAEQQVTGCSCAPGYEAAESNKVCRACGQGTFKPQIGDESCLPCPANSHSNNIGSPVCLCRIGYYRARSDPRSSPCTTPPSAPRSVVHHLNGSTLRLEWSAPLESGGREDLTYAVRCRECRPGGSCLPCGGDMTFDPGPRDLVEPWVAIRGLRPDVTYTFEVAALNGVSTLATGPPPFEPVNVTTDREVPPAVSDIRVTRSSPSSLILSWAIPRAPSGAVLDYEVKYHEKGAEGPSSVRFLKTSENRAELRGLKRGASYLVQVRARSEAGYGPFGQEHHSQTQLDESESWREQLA
Procedure: Two independent measurements were performed on human and murine EphB4-Fc.

[3] = biological target: T3, rat EphB1 (rat, UniProt P09759 18-538, limits assumed); experiment: ELISA, well L15 [part 2]
T3 sequence (looked up): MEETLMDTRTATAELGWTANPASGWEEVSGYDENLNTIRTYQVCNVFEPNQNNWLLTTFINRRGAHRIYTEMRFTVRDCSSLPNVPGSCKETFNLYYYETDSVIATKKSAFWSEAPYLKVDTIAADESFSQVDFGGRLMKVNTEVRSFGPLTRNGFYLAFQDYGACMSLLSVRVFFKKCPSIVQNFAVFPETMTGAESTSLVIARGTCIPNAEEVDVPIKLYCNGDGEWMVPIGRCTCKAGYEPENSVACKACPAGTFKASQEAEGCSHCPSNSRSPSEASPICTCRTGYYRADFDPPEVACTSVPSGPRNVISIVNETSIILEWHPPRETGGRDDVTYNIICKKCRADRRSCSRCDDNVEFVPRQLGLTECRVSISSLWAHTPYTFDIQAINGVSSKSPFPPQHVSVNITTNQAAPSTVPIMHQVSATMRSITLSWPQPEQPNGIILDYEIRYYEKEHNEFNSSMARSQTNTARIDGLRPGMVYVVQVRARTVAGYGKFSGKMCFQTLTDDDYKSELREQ

[4] = biological target: T4, recombinant mouse EphB2 (mouse, UniProt P54763 19-540, limits assumed); experiment: ELISA, well M15 [part 2]
T4 construct: also called mEphB2
T4 sequence (looked up): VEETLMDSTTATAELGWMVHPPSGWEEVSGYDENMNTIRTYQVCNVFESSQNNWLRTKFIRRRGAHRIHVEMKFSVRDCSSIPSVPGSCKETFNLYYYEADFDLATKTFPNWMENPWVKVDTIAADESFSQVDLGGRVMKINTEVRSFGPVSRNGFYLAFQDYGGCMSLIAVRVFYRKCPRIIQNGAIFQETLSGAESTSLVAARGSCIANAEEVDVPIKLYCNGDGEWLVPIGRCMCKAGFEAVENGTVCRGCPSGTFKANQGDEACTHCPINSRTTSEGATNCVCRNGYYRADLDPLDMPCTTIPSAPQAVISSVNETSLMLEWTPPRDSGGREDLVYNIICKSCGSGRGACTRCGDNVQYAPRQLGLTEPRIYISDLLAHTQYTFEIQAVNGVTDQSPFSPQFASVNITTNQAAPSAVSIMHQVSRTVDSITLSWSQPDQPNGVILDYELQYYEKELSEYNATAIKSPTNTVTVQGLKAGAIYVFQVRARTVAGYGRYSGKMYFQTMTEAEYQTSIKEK

[5] = biological target: T3, rat EphB1; experiment: ELISA on coated receptor
[6] = biological target: T5, myc-tagged human EphB4 on transfected CHO cells (human, UniProt P54760 16-987); experiment: FACS titration on CHO-EphB4 cells
T5 construct: whole, on cells; also called CHO-EphB4; CHO-hEphB4; not shown: myc tag
T5 sequence (looked up): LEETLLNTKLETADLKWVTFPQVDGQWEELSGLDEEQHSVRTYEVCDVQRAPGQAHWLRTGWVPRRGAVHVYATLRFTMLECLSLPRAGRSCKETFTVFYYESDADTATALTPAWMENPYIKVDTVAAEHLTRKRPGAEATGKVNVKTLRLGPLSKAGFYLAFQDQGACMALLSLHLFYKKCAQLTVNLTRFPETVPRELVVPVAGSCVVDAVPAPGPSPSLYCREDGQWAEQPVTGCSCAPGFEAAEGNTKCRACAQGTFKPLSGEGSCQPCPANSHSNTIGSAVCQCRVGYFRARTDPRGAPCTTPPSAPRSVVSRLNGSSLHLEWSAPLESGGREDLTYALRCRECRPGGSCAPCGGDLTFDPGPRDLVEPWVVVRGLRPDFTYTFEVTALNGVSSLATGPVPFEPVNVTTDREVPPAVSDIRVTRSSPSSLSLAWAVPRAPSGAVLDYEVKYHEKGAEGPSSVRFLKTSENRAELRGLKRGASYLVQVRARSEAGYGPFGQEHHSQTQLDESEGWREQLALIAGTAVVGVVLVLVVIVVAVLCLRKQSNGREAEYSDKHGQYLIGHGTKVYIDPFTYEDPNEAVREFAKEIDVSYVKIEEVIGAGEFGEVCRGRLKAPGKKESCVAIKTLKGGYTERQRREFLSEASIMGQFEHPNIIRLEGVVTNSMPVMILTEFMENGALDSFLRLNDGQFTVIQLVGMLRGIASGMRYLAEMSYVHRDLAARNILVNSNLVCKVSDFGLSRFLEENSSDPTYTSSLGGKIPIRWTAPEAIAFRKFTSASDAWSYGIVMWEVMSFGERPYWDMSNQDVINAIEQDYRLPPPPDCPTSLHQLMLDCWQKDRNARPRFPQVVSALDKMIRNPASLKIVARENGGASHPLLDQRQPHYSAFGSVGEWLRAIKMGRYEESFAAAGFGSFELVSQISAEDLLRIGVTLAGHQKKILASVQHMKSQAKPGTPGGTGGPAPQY

T1 sequence (Q03137 20-547 limits assumed): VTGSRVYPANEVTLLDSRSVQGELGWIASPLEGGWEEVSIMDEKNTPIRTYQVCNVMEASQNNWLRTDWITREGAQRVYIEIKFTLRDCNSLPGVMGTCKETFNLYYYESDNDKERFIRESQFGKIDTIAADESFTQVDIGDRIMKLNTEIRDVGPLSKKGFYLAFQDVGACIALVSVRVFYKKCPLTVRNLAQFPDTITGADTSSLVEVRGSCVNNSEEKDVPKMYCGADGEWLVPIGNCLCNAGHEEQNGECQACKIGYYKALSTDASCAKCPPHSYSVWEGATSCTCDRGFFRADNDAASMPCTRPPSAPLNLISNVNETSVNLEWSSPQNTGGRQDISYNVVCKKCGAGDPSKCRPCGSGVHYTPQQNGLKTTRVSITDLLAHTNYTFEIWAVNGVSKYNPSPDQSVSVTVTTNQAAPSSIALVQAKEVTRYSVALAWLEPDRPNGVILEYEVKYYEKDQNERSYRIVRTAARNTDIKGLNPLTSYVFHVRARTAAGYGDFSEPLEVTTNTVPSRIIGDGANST

binding result [1]: no binding | Kd [2]: 6.63 nM | binding result [3]: no binding | binding result [4]: no binding
B1: MOR03640 Fab (Fab, V domains shown)
VH: QVQLVESGGGLVQPGGSLRLSCAASGFTFNNSWMSWVRQAPGKGLEWVSNITSSSSMTHYADSVKGRFTISRDNSKNTLYLQMNSLRAEDTAVYYCARKGMSFYNNKYAKSMFDLWGQGTLVTVSS
VL: DIELTQPPSVSVAPGQTARISCSGDNLGKKYVHWYQQKPGQAPVLVIYYDSKRPSGIPERFSGSNSGNTATLTISGTQAEDEADYYCSAWTTTMMHIVFGGGTKLTVLG
notes: Monomeric HuCAL Fab, purified, MH-tagged

binding result [5]: no binding (tested: 20 µg/mL) | EC50 [6]: > 40 nM
B2: MOR03641 Fab (Fab, V domains shown)
VH: QVQLVQSGAEVKKPGSSVKVSCKASGGTFSTYAISWVRQAPGQGLEWMGRIIPIFGTANYAQKFQGRVTITADESTSTAYMELSSLRSEDTAVYYCARSSYTILTTYYNYNAMDNWGQGTLVTVSS
VL: DIQMTQSPSSLSASVGDRVTITCRASQNINNFLNWYQQKPGKAPKLLIYGSSILQSGVPSRFSGSGSGTDFTLTISSLQPEDFAVYYCHQVSDTSDTFGQGTKVEIKR
notes: Monomeric HuCAL Fab (VH1A, kappa1), purified, MH-tagged; also called 3541 [sic]

binding result [5]: no binding (tested: 20 µg/mL)
B3: MOR03639 Fab (Fab, V domains shown)
VH: QVQLVESGGGLVQPGGSLRLSCAASGFTFSNYYLHWVRQAPGKGLEWVSGISYSGSSTYYADSVKGRFTISRDNSKNTLYLQMNSLRAEDTAVYYCARFYQRRQIPHGYDVWGQGTLVTVSS
VL: DIELTQPPSVSVAPGQTARISCSGDNIGDYYVHWYQQKPGQAPVLVIYRDSNRPSGIPERFSGSNSGNTATLTISGTQAEDEADYYCGSYDMPFGGTVFGGGTKLTVLG
notes: Monomeric HuCAL Fab (VH3, lambda3), purified, MH-tagged
